B1: Pep8 (peptide)
peptide: NVLKLCSGE
notes: Pegylated forms (N-(PEG)5, N-(PEG)8) were tested only in gene expression assays and in vivo; also called polypeptide Pep8
B2: Pep1 (peptide)
peptide: ELASYIIITQLG
notes: Synthetic designed peptide; the SPR text mentions no pegylation; also called polypeptide Pep1

Tests used:
[1] = target: T1, RANK-Fc carrier-free (R&D Systems) (human, UniProt Q9Y6Q6 30-212); experiment: SPR (BIAcore 3000), RANK-Fc immobilized, single cycle kinetics, 1:1 Langmuir model
T1 construct: Bought from R&D Systems; Immobilized on the sensor chip for SPR and used in solution for NMR; also called hRANK; RANK-Fc CF; not shown: Fc part of the bought fusion protein
T1 sequence (looked up): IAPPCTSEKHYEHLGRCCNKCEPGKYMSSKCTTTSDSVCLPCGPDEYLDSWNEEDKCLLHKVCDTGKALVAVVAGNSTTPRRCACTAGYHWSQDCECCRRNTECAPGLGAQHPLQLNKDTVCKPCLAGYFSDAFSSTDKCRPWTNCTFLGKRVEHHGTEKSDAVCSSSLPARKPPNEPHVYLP
Description: Biosensor experiments were carried out on a BIAcore 3000 instrument (BIAcore) as published previously (Baud'Huin et al. 2009). Recombinant purified RANKL (2 μg/mL in 5 mM maleate, pH 5.75) or RANK-Fc carrier-free (5 μg/mL in sodium acetate buffer, pH 5.0) were covalently immobilized to the dextran matrix of a CMS sensor chip (BIAcore) at a flow rate of 5 μL/min. Immobilization levels ranging from 400 to 3000 Response Units (RU) for RANKL or 5000 RU for RANK were obtained. Binding assays were performed at 25° C. in 10 mM Hepes buffer, pH 7.4. The association phase was 180 seconds followed by a dissociation phase in the same buffer. Polypeptides binding studies to RANK or RANKL were determined using single cycle kinetics, starting with 100 μM of the polypeptide of interest followed by 2-fold serial dilutions (ranging from 100 to 0.78 μM). The sensorgrams were fitted to calculate the equilibrium-dissociation constants using the Langmuir 1:1 model with BiaEval 4.1 software (BIAcore). RANK-Fc CF, RANKL and OPG carrier-free were obtained from R&D Systems (Minneapolis, Minn., USA).
Binding of the polypeptides to RANK was studied using surface plasmon resonance (FIG. 1C). Several polypeptides bound to immobilized RANK in a dose-dependent manner, presented here is Pep1 (SEQ ID NO: 33).

[2] = target: T2, mouse RANK on cells (murine CD11b+ monocytes; RAW264.7 cells) (mouse, UniProt O35305 31-625); experiment: cell-based or functional assay
T2 sequence (looked up): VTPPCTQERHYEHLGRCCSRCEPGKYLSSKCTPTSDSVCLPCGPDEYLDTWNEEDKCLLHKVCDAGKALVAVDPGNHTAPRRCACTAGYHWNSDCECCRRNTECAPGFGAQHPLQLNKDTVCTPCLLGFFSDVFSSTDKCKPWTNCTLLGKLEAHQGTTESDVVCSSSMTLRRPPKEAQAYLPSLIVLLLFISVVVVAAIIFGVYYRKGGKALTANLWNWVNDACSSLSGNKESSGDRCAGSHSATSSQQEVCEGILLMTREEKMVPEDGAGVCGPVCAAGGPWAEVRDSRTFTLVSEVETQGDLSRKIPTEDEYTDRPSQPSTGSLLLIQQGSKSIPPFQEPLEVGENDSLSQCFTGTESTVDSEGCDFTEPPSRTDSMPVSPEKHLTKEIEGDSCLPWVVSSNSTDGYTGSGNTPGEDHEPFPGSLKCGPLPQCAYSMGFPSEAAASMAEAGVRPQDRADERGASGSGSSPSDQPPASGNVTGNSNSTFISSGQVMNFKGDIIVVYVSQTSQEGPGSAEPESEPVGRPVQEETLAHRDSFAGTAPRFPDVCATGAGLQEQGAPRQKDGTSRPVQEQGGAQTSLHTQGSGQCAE

[3] = target: T3, human RANK on cells (human CD14+ monocytes; HEK-RANK cells) (human, UniProt Q9Y6Q6 30-616); experiment: cell-based or functional assay
T3 sequence (looked up): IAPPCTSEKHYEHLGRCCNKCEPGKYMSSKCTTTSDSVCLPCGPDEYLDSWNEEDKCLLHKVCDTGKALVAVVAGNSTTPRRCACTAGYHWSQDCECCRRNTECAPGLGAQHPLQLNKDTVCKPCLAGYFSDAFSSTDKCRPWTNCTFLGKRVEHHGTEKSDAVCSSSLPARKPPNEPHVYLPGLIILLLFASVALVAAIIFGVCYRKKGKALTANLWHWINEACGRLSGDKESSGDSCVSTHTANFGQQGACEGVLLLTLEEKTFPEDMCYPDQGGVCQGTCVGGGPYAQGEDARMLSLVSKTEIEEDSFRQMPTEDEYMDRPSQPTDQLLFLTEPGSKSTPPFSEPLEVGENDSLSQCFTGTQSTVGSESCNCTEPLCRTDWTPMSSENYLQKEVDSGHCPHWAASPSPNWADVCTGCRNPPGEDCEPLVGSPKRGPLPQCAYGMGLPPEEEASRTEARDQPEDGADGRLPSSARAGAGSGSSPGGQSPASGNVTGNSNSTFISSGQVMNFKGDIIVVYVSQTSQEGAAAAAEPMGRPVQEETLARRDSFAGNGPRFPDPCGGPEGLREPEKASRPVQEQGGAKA

| Binder | Kd [1] [µM] | koff [1] [s⁻¹] | kon [1] [M⁻¹ s⁻¹] | IC50 of RANKL-induced osteoclast formation (TRAP-positive multinucleated cells), murine CD11b+ cells [2] [µM] | IC50 of RANKL-induced osteoclast formation (TRAP-positive multinucleated cells), human CD14+ cells [3] [µM] |
| --- | --- | --- | --- | --- | --- |
| B1 | 10.5 | 0.0052 | 495 | 30 | 40 |
| B2 | 20.6 | 0.000278 |  |  |  |

Reference: patent US20140371150A1 (UNIVERSITE DE NANTES, published 2014)
